In patent publication US12723255B2, “Herbicide tolerance genes and methods of use thereof” (priority 2014, dated 2026):
Where two headings read alike, the source gives them in different places.

B1: MON-HT55: engineered oxygenase protein, amino acid sequence SEQ ID NO:11 (protein)
chain: MHAALSPLSQRFERIAVQPLTGVLGAEITGVDLREPLDDSTWNEILDAFHTYQVIYFPGQAITNEQHIAFSRRFGPVDPVPLLKSIEGYPEVQMIRREANESGRVIGENWHTDSTFLDAPPAAVVMYAKEIPPYGGDTLFTSMYTAWETLSPTMQATIEGLNVVHSATRVFGSLYQAQNRRFSNTSVKVMDVDAGDRETVHPLVVTHPETGRKGLYVNQVYCQRIEGMSEKESEPLLSFLFAHATKPEFTCRVRWQEGDVLVWDNLCTQHYAVPDYAGKFRYLTRTTVGGVRPAR
B2: MON-HT7: engineered oxygenase protein, amino acid sequence SEQ ID NO:34 (protein)
chain: MHAALTPLTNKYRFIDVQPLTGVLGAEITGVDLREPLDDSTWNEILDAFHTYQVIYFPGQAITNEQHIAFSRRFGPVDPVPLLKSIEGYPEVQMIRREANESGRVIGDDWHADSTFLDAPPAAVVMRAIEVPEYGGDTGFLSMYSAWETLSPTMQATIEGLNVVHSATKVFGSLYQATNWRFSNTSVKVMDVDAGDRETVHPLVVTHPVTGRRALYCNQVYCQKIQGMTDAESKSLLQFLYEHATKFDFTCRVRWKKDQVLVWDNLCTMHRSVPDYAGKFRYLTRTTVAGDKPSR

Key:
[1] = kinetic analysis, non-endpoint assay at 23° C.; assay type: biochemical; conditions: for Vmax Quizalofop / Km / Vmax 2,4-D: standard error in parenthetical
Excerpt: For the fifth screen, recombinant protein for each of the eleven engineered proteins was produced and purified for an in-depth biochemical analysis. This biochemical analysis included: (1) kinetic analysis (Vmax and Km), (2) activity assays over a range of temperatures, (3) protein melting analysis, (4) activity on additional AOPP herbicides substrates, and (5) mass spectrometry analysis on peptides to confirm identity. The biochemical analyses were also done with purified recombinant wild-type protein and MON-HT55 protein for comparison. For the kinetic analysis, a non-endpoint assay was conducted at 23° C. with either quizalofop-P or 2,4-D as substrate. The recombinant proteins for these assays were produced in bacteria and purified using a 6-His tag fused at the C-terminal end of the protein. Results of the kinetic analysis with either quizalofop-P or 2,4-D as substrate are presented for ten of the engineered proteins, wild-type protein, and MON-HT55 protein in Table 7 (standard error is shown in parenthetical). Vmax is expressed as specific activity, umol herbicide product mg enzyme-1 min-1; Km expressed as mM herbicide substrate. […] The differentiation of the protein kinetics for MON-HTI and MON-HT7 were surprising because there are only four amino acid differences between MON-HT1 and MON-HT7. Specifically, MON-HT1 has the following amino acids at the indicated position: 182; F105; T112; and V273, and MON-HT7 has the following amino acids at the indicated position: L82; V105; S112; and A273.
Kinetic analysis using a non-endpoint assay was conducted at 23° C. with either quizalofop-P or 2,4-D as substrate, as detailed above for purified protein of the wild-type enzyme, MON-HT1, MON-HT13, MON-HT15, and MON-HT17.

[2] = assay type: physicochemical; conditions: buffer; for T1/2, temperature where 50% of the protein was unfolded, Buffer: pH 7.5
Procedure: A protein melting analysis was also conducted. For the protein melting determinations, purified enzyme was added to 96-well microtiter plates in standard storage buffer (30 mM Tris pH7.5, 150 mM NaCl) with or without 50 uM Fe2+ and 1.0 mM aKG. Protein unfolding was then detected with SYPRO® orange protein gel stain (Invitrogen™ catalog #S6651, Life Technologies, Grand Island, NY) in a BioRad CFX96™ Real time PCR machine (BioRad, Hercules, CA) with readings taken between 10° C. to 95° C. in 0.5° C. steps. […] In contrast, 50 uM Fe2+ and 1.0 mM aKG had little effect on the stability of any of the engineered proteins. MON-HT55, MON-HT3, MON-HT4, MON-HT6, and MON-HT10 had melting temperatures in the range of 41° C. to 48° C., which is below the melting temperature of the wild-type enzyme. MON-HT1, MON-HT2, MON-HT5, MON-HT7, MON-HT8, and MON-HT9 had melting temperatures between 58° C. and 67° C., which is 8° C. to 17° C. higher than the wild-type enzyme. For MON-HT7 and MON-HT1, the difference in melting point was 11° C. in buffer without Fe2+ and aKG and 8° C. in buffer with Fe2+ and aKG. This was surprising since there are only four amino acid differences between the two enzymes.
A protein melting analysis was conducted as detailed above. The melting temperatures of MON-HT13, MON-HT15, and MON-HT17 was similar to the melting temperature of MON-HT1 with T1/2 in buffer in the range of 55-58° C., and with T1/2 in buffer plus Fe2+ and aKG in the range of 60-62° C.

[3] = enzyme activity assay at 23° C. with purified enzyme; assay type: biochemical
Procedure: The enzyme activity of MON-HT protein variants with haloxyfop, fenoxaprop, fluazifop, and dichlorprop as substrates was determined using the enzyme activity assay conducted at 23° C. with purified enzyme. The activity was recorded as the maximum activity as a percentage of the wild-type enzyme's activity, which was set at 100%.

F1 hybrid maize plants = assay: efficacy field trial with segregating F1 hybrid plants; assay type: in vivo; conditions: CTP A
Procedure: Ten unique engineered proteins optimized for activity at higher temperatures were selected for maize transformation and analysis in plants. DNA constructs were produced for expressing these engineered proteins with codon usage optimized for monocot expression using methods known to those skilled in the art. Enhancers, promoters, leaders, introns, CTPs, and 3′UTRs were tested in various combinations with the engineered proteins in these DNA constructs. The DNA constructs were used to transform immature maize (LH244) embryos with these vectors using Agrobacterium tumifaciens and standard methods known in the art. Regenerated R0 transgenic plantlets were grown in the green house.
Transgenic R0 maize plants were screened by the application of quizalofop-P (2×) plus 2,4-D (2×) at 7 to 10 days following transplant into plugs (generally corresponding to V3-V4 growth stage). All constructs tested produced plants containing unique events that passed the RO screen. The R0 plants were selfed to generate R1 homozygous seed and the R0 was also used as the male to cross with inbred plants containing maize event MON89034 to generate segregating F1 hybrid seed for efficacy field trials.
An efficacy field trial was conducted with segregating F1 hybrid plants, with 50% hemizygous and 50% null for the transgene. Tolerance to quizalofop-P (2×) plus 2,4-D (2×) was assessed using two herbicide application regimens: (1) quizalofop-P (Assure II) at 0.16 lb ai/acre (2×) plus 0.25% v/v non-ionic surfactant (NIS) applied at VE-V2 growth stage followed by the same at V4 growth stage followed by the same at V8 growth stage and (2) 2,4-D amine at 2 lb ae/acre (2×) plus quizalofop-P at 0.04 lb ai/acre (0.5×) plus 0.25% v/v NIS applied at VE-V2 growth stage followed by 2,4-D amine at 2 lb ae/acre (2×) plus 0.25% v/v NIS applied at V4 growth stage followed by the same at V8 growth stage. The 50% of the plants that were null for transgene were removed by the first quizalofop-P application at VE-V2 growth stage. Plots were visually rated 10-14 days after application for crop injury on a scale of 0 to 100 with “0” being none and “100” being complete crop destruction. […] The percentage injury rating with 2× application of 2,4-D at V8 growth stage ranged from a high of 40% to a low of 0. Similarly, the percentage injury rating with 2× application of quizalofop-P at V8 growth stage ranged from a high of 90% to a low of 0. Variation in injury rating between plants expressing the same protein is likely due to variations in construct design or transgene insertion location.

[4] = 23° C., purified His-tagged protein
[5] = 23° C., purified His-tagged protein, read-out: Km Quizalofop
[6] = NDB = activity not robust enough for kinetic characterization
[7] = NDB = activity not robust enough for kinetic characterization, read-out: Km 2,4-D
[8] = 2,4-D amine 2× at VE-V2 (plus quizalofop-P 0.5×), V4, V8
[9] = quizalofop-P 2× at VE-V2, V4, V8

Molecule	Vmax Quizalofop [1, 4]	Km [1, 5] [µM]	Vmax 2,4-D [1, 6]	Km [1, 7] [µM]	T1/2, temperature where 50% of the protein was unfolded, Buffer plus Fe2+ and aKG [2] [°C]	T1/2, temperature where 50% of the protein was unfolded, Buffer [2] [°C]	maximum activities for all four substrates compared with the wild-type enzyme ([3]; haloxyfop, fenoxaprop, fluazifop and dichlorprop)	maximum activity as a percentage of the wild-type enzyme's activity, Haloxyfop ([3]; purified enzyme, wild-type set at 100%) [%]	maximum activity as a percentage of the wild-type enzyme's activity, Dichlorprop ([3]; wild-type set at 100%) [%]	maximum activity as a percentage of the wild-type enzyme's activity, Fenoxaprop ([3]; wild-type set at 100%) [%]	maximum activity as a percentage of the wild-type enzyme's activity, Fluazifop ([3]; wild-type set at 100%) [%]	Vmax for 2,4-D relative to the wild-type enzyme [1]	Vmax with quizalofop-P greater than the wild-type enzyme ([1]; 23° C.)	% Injury from V4 2,4-D (F1 hybrid maize plants; [8]) [%]	% Injury from V8 2,4-D (F1 hybrid maize plants; [8]) [%]	% Injury from V4 Quizalofop (F1 hybrid maize plants; [9]) [%]	% Injury from V8 Quizalofop (F1 hybrid maize plants; [9]) [%]
B1	0.44 (−0.04) umol herbicide product mg enzyme-1 min-1	320	0.03 (−0.02) umol herbicide product mg enzyme-1 min-1	690	41	41	lower than, or equal to	58	31	34	38	–	–	–	–	–	–
B2	1.94 (−0.12) umol herbicide product mg enzyme-1 min-1	330	0.04 (−0.01) umol herbicide product mg enzyme-1 min-1	60	67	67	–	–	–	–	–	about half	approximately 40%	21.6	16.6	31.2	5
